In paper PMC11372557:

Key:
[1] = molecular target: RbdA-PDE (RbdA 549-797), phosphodiesterase domain of the regulator of biofilm dispersal RbdA (Pseudomonas aeruginosa strain PAO1); test: SEC; apparent molecular weight on a calibrated size exclusion system; purified proteins in solution
[2] = molecular target: RbdA-DGC-PDE (RbdA 376-797), linked cyclase-phosphodiesterase double domain of RbdA (Pseudomonas aeruginosa strain PAO1); test: as above

## RbdA-PDE (RbdA 549-797), phosphodiesterase domain of the regulator of biofilm dispersal RbdA (domain or fragment)
[1]
  stoichiometry N: 2

## RbdA-DGC-PDE (RbdA 376-797), linked cyclase-phosphodiesterase double domain of RbdA (domain or fragment)
[2]
  stoichiometry N: 2
